B1: LINE1-full (parent)
chain: UACGUAGGUGGUUUUCCCCUGAUAGUGCUAAGGGGGCCUGGAAGUUUGGACUGGGCAGAGCUCAACACAGCGUGGCAAAGUGGCUGUGGCUAGACUGCCUCUCUGGAUUCCUCGUCACUCAGCAGGGCAUCUCUGAGAGAAAUGCC

The variants in the series derive from B1. The series is described as follows: self-cleavage, relative activity (ratio to wild type); higher = more cleavage; in vitro, sequencing; the parent is a self-cleaving ribozyme.
As to UACGUAGGUGGUUUUCCCCUGAUAGUGCUAAGGGGGCCUGGAAGUUUGGACUGGGCAGAGCUCAACACAGCGUGGCAAAGUGGCUGUGGCUAGACUGCCUCUCUGGAUGCCUCGUCACUCAGCAGGGCAUCUCUGAGAGAGAUGCC [U109G A141G], the self-cleavage came to 0.93.

Regarding UACGUAGGUGGUUUUCCCCUGAUAGUGCUAAGGGGGCCUGGAAGUUUGGACUGGGCAGAGCUCAACACAGCGUGGCAAAGUGGCUGUGGCUAGACUGCCUCUCUGGAUGCCUCGUCACUCAGCAGGGCAUCUCUGAGAGAUAUGCC [U109G A141U], the self-cleavage stood at 1.08.

As to UACGUAGGUGGUUUUCCCCUGAUAGUGCUAAGGGGGCCUGGAAGUUUGGACUGGGCAGAGCUCAACACAGCGUGGCAAAGUGGCUGUGGCUAGACUGCCUCUCUGGAUCCCUCGUCACUCAGCAGGGCAUCUCUGAGAGAAACGCC [U109C U143C], the self-cleavage was 1.29.

As to UACGUAGGUGGUUUUCCCCUGAUAGUGCUAAGGGGGCCUGGAAGUUUGGACUGGGCAGAGCUCAACACAGCGUGGCAAAGUGGCUGUGGCUAGACUGCCUCUCUGGAUCCCUCGUCACUCAGCAGGGCUUCUCUGAGAGAAAUGCC [U109C A129U], the self-cleavage stood at 1.97.

UACGUAGGUGGUUUUCCCCUGAUAGUGCUAAGGGGGCCUGGAAGUUUGGACUGGGCAGAGCUCAACACAGCGUGGCAAAGUGGCUGUGGCUAGACUGCCUCUCUGGAUCCCUCGUCACUCAGCAGGGCGUCUCUGAGAGAAAUGCC [U109C A129G]: the self-cleavage was 1.3.

As to UACGUAGGUGGUUUUCCCCUGAUAGUGCUAAGGGGGCCUGGAAGUUUGGACUGGGCAGAGCUCAACACAGCGUGGCAAAGUGGCUGUGGCUAGACUGCCUCUCUGGAUGCCUCGUCACUCAGCAGGGCAUCUCUGAGAGAAACGCC [U109G U143C], the self-cleavage was determined as 0.87.

In the case of UACGUAGGUGGUUUUCCCCUGAUAGUGCUAAGGGGGCCUGGAAGUUUGGACUGGGCAGAGCUCAACACAGCGUGGCAAAGUGGCUGUGGCUAGACUGCCUCUCUGGAUCCCUCGUCACUCAGCAUGGCAUCUCUGAGAGAAAUGCC [U109C G125U], the self-cleavage worked out at 1.27.

For UACGUAGGUGGUUUUCCCCUGAUAGUGCUAAGGGGGCCUGGAAGUUUGGACUGGGCAGAGCUCAACACAGCGUGGCAAAGUGGCUGUGGCUAGACUGCCUCUCUGGAUCCCUCGUCACUCAGCAGGGCAUCUCUGAAAGAAAUGCC [U109C G137A], the self-cleavage came to 1.45.

As for UACGUAGGUGGUUUUCCCCUGAUAGUGCUAAGGGGGCCUGGAAGUUUGGACUGGGCAGAGCUCAACACAGCGUGGCAAAGUGGCUGUGGCUAGACUGCCUCUCUGGAUCCCCCGUCACUCAGCAGGGCAUCUCUGAGAGAAAUGCC [U109C U112C], the self-cleavage worked out at 1.69.

For UACGUAGGUGGUUUUCCCCUGAUAGUGCUAAGGGGGCCUGGAAGUUUGGACUGGGCAGAGCUCAACACAGCGUGGCAAAGUGGCUGUGGCUAGACUGCCUCUCUGGAUCCCACGUCACUCAGCAGGGCAUCUCUGAGAGAAAUGCC [U109C U112A], the self-cleavage is 2.11.

On to UACGUAGGUGGUUUUCCCCUGAUAGUGCUAAGGGGGCCUGGAAGUUUGGACUGGGCAGAGCUCAACACAGCGUGGCAAAGUGGCUGUGGCUAGACUGCCUCUCUGGAUCCCUCGUCACUCAGCAGGGAAUCUCUGAGAGAAAUGCC [U109C C128A], for which the self-cleavage turned out to be 1.47.

Consider UACGUAGGUGGUUUUCCCCUGAUAGUGCUAAGGGGGCCUGGAAGUUUGGACUGGGCAGAGCUCAACACAGCGUGGCAAAGUGGCUGUGGCUAGACUGCCUCUCUGGAUUACUCGUCACUCAACAGGGCAUCUCUGAGAGAAAUGCC [C110A G122A], for which the self-cleavage came to 0.9.

In the case of UACGUAGGUGGUUUUCCCCUGAUAGUGCUAAGGGGGCCUGGAAGUUUGGACUGGGCAGAGCUCAACACAGCGUGGCAAAGUGGCUGUGGCUAGACUGCCUCUCUGGAUGCCUCGUCACUCAGCAGGGCAUCUCUGAGAGGAAUGCC [U109G A140G], the self-cleavage stood at 0.21.

Regarding UACGUAGGUGGUUUUCCCCUGAUAGUGCUAAGGGGGCCUGGAAGUUUGGACUGGGCAGAGCUCAACACAGCGUGGCAAAGUGGCUGUGGCUAGACUGCCUCUCUGGAUUACUCGCCACUCAGCAGGGCAUCUCUGAGAGAAAUGCC [C110A U115C], the self-cleavage was 1.47.

UACGUAGGUGGUUUUCCCCUGAUAGUGCUAAGGGGGCCUGGAAGUUUGGACUGGGCAGAGCUCAACACAGCGUGGCAAAGUGGCUGUGGCUAGACUGCCUCUCUGGAUCCCUCGUCACUCAGCAGGGCAUCUCCGAGAGAAAUGCC [U109C U134C]: the self-cleavage is 1.21.

In the case of UACGUAGGUGGUUUUCCCCUGAUAGUGCUAAGGGGGCCUGGAAGUUUGGACUGGGCAGAGCUCAACACAGCGUGGCAAAGUGGCUGUGGCUAGACUGCCUCUCUGGAUCCCUCGUCACUCAGCAGGGCAUCUCUGAGAGAAAUGCU [U109C C146U], the self-cleavage was 1.53.

For the variant UACGUAGGUGGUUUUCCCCUGAUAGUGCUAAGGGGGCCUGGAAGUUUGGACUGGGCAGAGCUCAACACAGCGUGGCAAAGUGGCUGUGGCUAGACUGCCUCUCUGGAUUACUCGUCACUCAGCAGGGCAUCUCUGAGAGAGAUGCC [C110A A141G], the self-cleavage was 1.84.

On to UACGUAGGUGGUUUUCCCCUGAUAGUGCUAAGGGGGCCUGGAAGUUUGGACUGGGCAGAGCUCAACACAGCGUGGCAAAGUGGCUGUGGCUAGACUGCCUCUCUGGAUCCCUCGUCACUCAGCAGGGCAUCUCUAAGAGAAAUGCC [U109C G135A], for which the self-cleavage was 1.71.

UACGUAGGUGGUUUUCCCCUGAUAGUGCUAAGGGGGCCUGGAAGUUUGGACUGGGCAGAGCUCAACACAGCGUGGCAAAGUGGCUGUGGCUAGACUGCCUCUCUGGAUCACUCGUCACUCAGCAGGGCAUCUCUGAGAGAAAUGCC [U109C C110A]: the self-cleavage is 1.55.

Take UACGUAGGUGGUUUUCCCCUGAUAGUGCUAAGGGGGCCUGGAAGUUUGGACUGGGCAGAGCUCAACACAGCGUGGCAAAGUGGCUGUGGCUAGACUGCCUCUCUGGAUCCCUCGUCACUCAGCAGGGCAUCUCUGAGAGAAAUGCC [U109C]: the self-cleavage is 1.2.

Consider UACGUAGGUGGUUUUCCCCUGAUAGUGCUAAGGGGGCCUGGAAGUUUGGACUGGGCAGAGCUCAACACAGCGUGGCAAAGUGGCUGUGGCUAGACUGCCUCUCUGGAUGCCUCGUCACUCAGCAGGGCAUCUCUGAGAGAAAUGCC [U109G], for which the self-cleavage was 0.63.

Turning to UACGUAGGUGGUUUUCCCCUGAUAGUGCUAAGGGGGCCUGGAAGUUUGGACUGGGCAGAGCUCAACACAGCGUGGCAAAGUGGCUGUGGCUAGACUGCCUCUCUGGAUCCCUCGUCACUCAGCAGGUCAUCUCUGAGAGAAAUGCC [U109C G127U], the self-cleavage was 1.25.

On to UACGUAGGUGGUUUUCCCCUGAUAGUGCUAAGGGGGCCUGGAAGUUUGGACUGGGCAGAGCUCAACACAGCGUGGCAAAGUGGCUGUGGCUAGACUGCCUCUCUGGAUCCCUCGUCACUCAGCAGGACAUCUCUGAGAGAAAUGCC [U109C G127A], for which the self-cleavage came to 1.49.

As to UACGUAGGUGGUUUUCCCCUGAUAGUGCUAAGGGGGCCUGGAAGUUUGGACUGGGCAGAGCUCAACACAGCGUGGCAAAGUGGCUGUGGCUAGACUGCCUCUCUGGAUCCCUCGUCACUCAGCUGGGCAUCUCUGAGAGAAAUGCC [U109C A124U], the self-cleavage is 1.64.

For the variant UACGUAGGUGGUUUUCCCCUGAUAGUGCUAAGGGGGCCUGGAAGUUUGGACUGGGCAGAGCUCAACACAGCGUGGCAAAGUGGCUGUGGCUAGACUGCCUCUCUGGAUCCCUCGUCACUCAGCCGGGCAUCUCUGAGAGAAAUGCC [U109C A124C], the self-cleavage was determined as 1.41.

Regarding UACGUAGGUGGUUUUCCCCUGAUAGUGCUAAGGGGGCCUGGAAGUUUGGACUGGGCAGAGCUCAACACAGCGUGGCAAAGUGGCUGUGGCUAGACUGCCUCUCUGGAUCCCUCGUCACUCAGCAGGGCAUCUCUGAGAGAGAUGCC [U109C A141G], the self-cleavage worked out at 1.46.

As for UACGUAGGUGGUUUUCCCCUGAUAGUGCUAAGGGGGCCUGGAAGUUUGGACUGGGCAGAGCUCAACACAGCGUGGCAAAGUGGCUGUGGCUAGACUGCCUCUCUGGAUUACUCGUCACUCAGCGGGGCAUCUCUGAGAGAAAUGCC [C110A A124G], the self-cleavage was determined as 1.62.

UACGUAGGUGGUUUUCCCCUGAUAGUGCUAAGGGGGCCUGGAAGUUUGGACUGGGCAGAGCUCAACACAGCGUGGCAAAGUGGCUGUGGCUAGACUGCCUCUCUGGAUCCCUCGGCACUCAGCAGGGCAUCUCUGAGAGAAAUGCC [U109C U115G]: the self-cleavage is 1.04.

With UACGUAGGUGGUUUUCCCCUGAUAGUGCUAAGGGGGCCUGGAAGUUUGGACUGGGCAGAGCUCAACACAGCGUGGCAAAGUGGCUGUGGCUAGACUGCCUCUCUGGAUGCCUCGUCACUCAGCAGGGCAUCUCUGAGUGAAAUGCC [U109G A138U], the self-cleavage came to 1.07.

Consider UACGUAGGUGGUUUUCCCCUGAUAGUGCUAAGGGGGCCUGGAAGUUUGGACUGGGCAGAGCUCAACACAGCGUGGCAAAGUGGCUGUGGCUAGACUGCCUCUCUGGAUGCCCCGUCACUCAGCAGGGCAUCUCUGAGAGAAAUGCC [U109G U112C], for which the self-cleavage amounted to 0.19.

In the case of UACGUAGGUGGUUUUCCCCUGAUAGUGCUAAGGGGGCCUGGAAGUUUGGACUGGGCAGAGCUCAACACAGCGUGGCAAAGUGGCUGUGGCUAGACUGCCUCUCUGGAUACCUCGUCACUCAGCAGGGCAUCUCGGAGAGAAAUGCC [U109A U134G], the self-cleavage amounted to 1.25.

For the variant UACGUAGGUGGUUUUCCCCUGAUAGUGCUAAGGGGGCCUGGAAGUUUGGACUGGGCAGAGCUCAACACAGCGUGGCAAAGUGGCUGUGGCUAGACUGCCUCUCUGGAUACCUCGUCACUCAGCAGGGCAUCUCCGAGAGAAAUGCC [U109A U134C], the self-cleavage was 1.67.

With UACGUAGGUGGUUUUCCCCUGAUAGUGCUAAGGGGGCCUGGAAGUUUGGACUGGGCAGAGCUCAACACAGCGUGGCAAAGUGGCUGUGGCUAGACUGCCUCUCUGGAUCCCUCGUCGCUCAGCAGGGCAUCUCUGAGAGAAAUGCC [U109C A117G], the self-cleavage is 1.7.

As for UACGUAGGUGGUUUUCCCCUGAUAGUGCUAAGGGGGCCUGGAAGUUUGGACUGGGCAGAGCUCAACACAGCGUGGCAAAGUGGCUGUGGCUAGACUGCCUCUCUGGAUCCCUCGUCACUCAGCAGGGCAUCUCUGAGAGUAAUGCC [U109C A140U], the self-cleavage turned out to be 1.15.

For the variant UACGUAGGUGGUUUUCCCCUGAUAGUGCUAAGGGGGCCUGGAAGUUUGGACUGGGCAGAGCUCAACACAGCGUGGCAAAGUGGCUGUGGCUAGACUGCCUCUCUGGAUCCCUCGUCACUCAGCAGGGCAUCUCUGAGAGGAAUGCC [U109C A140G], the self-cleavage was found to be 0.48.

UACGUAGGUGGUUUUCCCCUGAUAGUGCUAAGGGGGCCUGGAAGUUUGGACUGGGCAGAGCUCAACACAGCGUGGCAAAGUGGCUGUGGCUAGACUGCCUCUCUGGAUUACUCGUCACUCUGCAGGGCAUCUCUGAGAGAAAUGCC [C110A A121U]: the self-cleavage turned out to be 1.32.

In the case of UACGUAGGUGGUUUUCCCCUGAUAGUGCUAAGGGGGCCUGGAAGUUUGGACUGGGCAGAGCUCAACACAGCGUGGCAAAGUGGCUGUGGCUAGACUGCCUCUCUGGAUCCCUCGUCACUCAGCAGGGCAUCUCUGGGAGAAAUGCC [U109C A136G], the self-cleavage was 1.75.

Consider UACGUAGGUGGUUUUCCCCUGAUAGUGCUAAGGGGGCCUGGAAGUUUGGACUGGGCAGAGCUCAACACAGCGUGGCAAAGUGGCUGUGGCUAGACUGCCUCUCUGGAUUACUCGUCACUCAGCAGGGCACCUCUGAGAGAAAUGCC [C110A U130C], for which the self-cleavage is 1.04.

As to UACGUAGGUGGUUUUCCCCUGAUAGUGCUAAGGGGGCCUGGAAGUUUGGACUGGGCAGAGCUCAACACAGCGUGGCAAAGUGGCUGUGGCUAGACUGCCUCUCUGGAUCCCUCGUCACUCAACAGGGCAUCUCUGAGAGAAAUGCC [U109C G122A], the self-cleavage worked out at 1.81.
